Results on one molecule are retold here after patent US20200360469A1 (published 2020).

Usually IC50 stands for the midpoint of a concentration-inhibition curve. Lower therefore signals greater potency in that assay.

The assay concerns the target full-length (FL) BRAF^WT, 6x-HIS-BRAF-WT/FLAG (human, UniProt P15056 2-766). Briefly: kinase activity inhibition (ELISA); with 0.1 nM Dabrafenib.

full-length (FL) BRAF^WT, 6x-HIS-BRAF-WT/FLAG, sequence (P15056 2-766): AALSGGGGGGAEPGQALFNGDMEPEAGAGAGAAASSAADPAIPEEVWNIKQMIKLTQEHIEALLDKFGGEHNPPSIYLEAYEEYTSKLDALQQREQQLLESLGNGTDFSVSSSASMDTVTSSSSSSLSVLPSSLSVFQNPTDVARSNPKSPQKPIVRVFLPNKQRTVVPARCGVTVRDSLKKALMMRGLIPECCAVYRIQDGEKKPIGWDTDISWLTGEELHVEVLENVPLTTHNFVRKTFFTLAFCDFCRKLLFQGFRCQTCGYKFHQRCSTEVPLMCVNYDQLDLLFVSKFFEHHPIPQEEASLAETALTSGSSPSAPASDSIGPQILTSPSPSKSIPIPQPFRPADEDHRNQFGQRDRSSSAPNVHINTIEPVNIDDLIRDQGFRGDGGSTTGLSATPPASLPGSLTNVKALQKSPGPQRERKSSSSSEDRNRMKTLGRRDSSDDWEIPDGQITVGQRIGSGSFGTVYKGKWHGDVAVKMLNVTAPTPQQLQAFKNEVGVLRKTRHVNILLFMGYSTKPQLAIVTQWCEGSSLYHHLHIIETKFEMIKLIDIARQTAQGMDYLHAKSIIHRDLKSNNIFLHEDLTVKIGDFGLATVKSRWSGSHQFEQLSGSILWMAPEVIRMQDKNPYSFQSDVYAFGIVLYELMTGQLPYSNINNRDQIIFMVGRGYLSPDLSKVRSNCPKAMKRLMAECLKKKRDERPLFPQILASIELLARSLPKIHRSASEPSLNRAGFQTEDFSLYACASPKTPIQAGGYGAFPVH

TRHVNILLFM [braftide] yielded an IC50 of 280 nM.
